Test results published in patent publication US20240392013A1, “IL1RAP ANTIBODIES AND USES THEREOF” (STELEXIS THERAPEUTICS, LLC, priority 2021, published 2024).

Tests used:
cyIL1RAP = assay: Kinetics of IL1RAP mAbs by Octet, cynomolgus IL1RAP; assay type: binding
Procedure: (§1) Antibodies were diluted in kinetics buffer (0.1% BSA, 0.02% Tween-20 and 0.05% NaN3 in PBS) and loaded onto 16 channel anti-mouse IgG Fc capture sensors (AMC, Cat #2001073; Sartorius, Göttingen, Germany). Human, huIL1RAP-His (Sino Biological, lot: MB08MA1301), and monkey, cyIL1RAP-His (Lake Pharma, NY, USA; lot:16205819371) proteins were titrated starting from the highest concentration of 100 nM and followed by 50 nM and 25 nM. Purified antibodies were loaded at 5 μg/ml in kinetics buffer. The experimental parameters selected to determine the kinetic constants were Baseline for 60 s, Loading of antibody to sensor for 180 s, Association of analyte to antibody for 120 s, Dissociation for 1200 s and Regeneration in 10 mM Glycine pH 1.7 for 4×30 s.
(§2) Regeneration cycle tracking was selected for 12 cycles. Binding to human and cynomolgus IL1RAP was measured and KD (M) kinetics were calculated. Also, the disassociation rate (Kdis) (1/s) and association rate (Kon) (1/Ms) kinetics were calculated (data not shown).

A549 cells = assay: IL-1-induced IL-6 secretion, ELISA; assay type: cell-based, human; conditions: 66 nM-2 μM, 72 hours, dose-dependent
Procedure: Methods: A549 cells were seeded on CytoOne® 24 well plate (USA Scientific, Cat #CC7682-7524) at 0.05×10^6/mL and were kept at 37° C./5% CO2 in humified incubator. After 6 hours, the cells were treated with IL-1β (0.5 ng/ml) in the presence or absence of IL1RAP antibodies at 66 nM, 200 nM, 666 nM and 2 μM at 37° C./5% CO2 in humified incubator. Cell culture media was collected after 72 hours and was centrifuged at 4° C. for 5 min. All supernatant samples were analyzed in triplicates. Human IL-6 microplate (R&D Part #890045) was incubated for 2 hours at room temperature with standard, control, or supernatant samples (100 μl) diluted in assay diluent RD1W (100 μl). Samples were aspirated and washed with wash buffer (R&D, cat #895003) four times. Human IL-6 conjugate (200p1) (R&D, cat #890046) was added to each well and incubated for 2 hours at room temperature. Aspiration/wash step was repeated as stated above. Equal volume of substrate color reagent A (R&D, cat #895000) and B (R&D, cat #895001) were mixed, and the substrate solution (200 μl) was added to each well and incubated for 20 minutes at room temperature in the dark. Stop solution (50p1) (R&D, cat #895032) was added to each well and optical density was determined at 450 nm by Cytation™ Cell Imaging Multi-Mode Reader (BioTek).

hIL1RAP [1] = biological target: T1, hIL1RAP (Homo sapiens, UniProt Q9NPH3); assay: Binding of mAbs to human IL1RAP protein by cell-free ELISA; set-up: extracellular domain His-tagged, Cat #10121-H08H; His; purchased Sino Biological 10121-H08H; conditions: FIG. 1
T1 sequence (Q9NPH3 21-367 limits assumed): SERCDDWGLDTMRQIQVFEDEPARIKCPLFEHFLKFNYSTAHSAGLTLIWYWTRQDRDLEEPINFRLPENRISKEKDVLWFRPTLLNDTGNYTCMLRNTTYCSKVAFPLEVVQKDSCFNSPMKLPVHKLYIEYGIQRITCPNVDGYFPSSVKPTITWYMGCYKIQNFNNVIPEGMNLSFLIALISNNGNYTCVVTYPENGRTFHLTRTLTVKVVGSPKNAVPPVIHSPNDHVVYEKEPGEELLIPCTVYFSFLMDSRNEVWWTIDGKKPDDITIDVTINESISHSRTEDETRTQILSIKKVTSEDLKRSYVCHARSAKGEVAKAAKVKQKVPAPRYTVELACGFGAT
Procedure: Recombinant human or mouse IL1RAP proteins (Sino Biological, Beijing, China; Cat #10121-H08H and Sino Biological, Cat #52657-M08H respectively) were diluted in PBS, pH 7.4 at concentration of 1 μg/ml, coated on high-binding 384-well clear plates and incubated overnight at 4° C. Following, plates were washed 3× with 0.05% Tween-20 in PBS, pH 7.5 and then blocked with 1% BSA in PBS for 1 hour at room temperature. After 3× washes, wells were incubated with each antibody at the highest concentration of 100 nM followed by seven serial half log dilutions (in 1% BSA and 0.05% Tween-20 in PBS) for 1 hour at room temperature. Plates were then washed 3× and incubated with […] detection antibody (Medna, TX, USA; Cat #D8212, 0.5 μg/ml diluted in 0.02% Tween-20 in PBS). After 5× washes, Supersignal ELISA Pico substrate (Thermofisher, MA, USA; Cat #37069) was applied to wells and chemiluminescent signal was read on Sprectramax L for 200 ms/well. Similarly, detection with specific κ and λ antibodies was conducted to define light chain isotyping.
Binding of mAbs to human IL1RAP protein was determined by cell-free ELISA. mAbs bound to human IL1RAP and EC50 values were calculated at the nM range.

hIL1RAP [2] = biological target: T1, hIL1RAP; assay: Kinetics of IL1RAP mAbs by Octet, human IL1RAP; assay type: binding; set-up: extracellular domain His-tagged, Cat #10121-H08H; His; purchased Sino Biological lot MB08MA1301 (catalogue number not given)
Procedure: as §1, §2

Row | Molecule | cyIL1RAP kdis(1/s) (cyIL1RAP) [s⁻¹] | cyIL1RAP kon(1/Ms) (cyIL1RAP) [M⁻¹ s⁻¹] | IL-1-induced IL-6 secretion (A549 cells) | Binding to human IL1RAP (hIL1RAP [1]) | hIL1RAP kdis(1/s) (hIL1RAP [2]) [s⁻¹] | hIL1RAP kon(1/Ms) (hIL1RAP [2]) [M⁻¹ s⁻¹]
1 | 74804_12A21B: anti-IL1RAP mAb; VH SEQ ID NO:6, VL SEQ ID NO:23, κ light chain (antibody, V domains shown, 74804_12A21B VH and 74804_29D13A VH; 74804_12A21B VL) VH: QVQLLQSGAEVKKPGSSVKVSCKASGGTFSIYAIDWVRQAPGQGLEWMGGIIPIFGTANSAQKFQGRVTITADKSTSTAYMELSSLRSEDTAVYYCARNGATSDAFDMWGQGTMVTVSS VL: EIVLTQSPGTLSLSPGERATLSCRASLSVSSNYLAWFQQRPGQAPRLLIHGVSRRATGIPDRFSGSGSGTDFTLTISRLEPEDFAVYYCQQYGSSPLTFGGGTKVEIK | 0.000441 | 342200 | inhibited | bound to human IL1RAP in a dose dependent manner | 0.000287 | 307700
2 | 74804_43F04A: anti-IL1RAP mAb; VH SEQ ID NO:7, VL SEQ ID NO:22, κ light chain (antibody, V domains shown, 74804_43F04A VH; 74804_07K10A VL, 74804_29D13A VL and 74804_43F04A VL) VH: QVQLLQSGAEVKKPGSSVKVSCKASGGTFSIYAIDWVRQAPGQGLEWMGGIIPIFGTENSAQNFQGRITITADKSTNTAYMELSSLRSEDTAVYYCARNGATSDAFDIWGQGTMVTVFS VL: EIVLTQSPGTLSLSPGERATLSCRASLSVSSNYLAWFQQRPGQAPRLLIYGVSRRATGIPDRFSGSGSGTDFTLTISRLEPEDFAVYYCQQYGSSPLTFGGGTKVEIK | 0.0004 | 412100 | inhibited | bound to human IL1RAP in a dose dependent manner | 0.000149 | 350200
